This note sets out measurements from US7160981B2, “Peptide antagonists of DP transcription factors” (Prolifix Limited, priority 1996, dated 2007).

Entries after “also recorded” stand apart in the source; their conditions may differ.

In one assay the target is T1, DP-1/E2F-1 heterodimer (Homo sapiens, UniProt Q01094).
T1 construct: GST (N); made in house; DP-1 made by in vitro translation
Put plainly: binding assay: GST-E2F-1 fusion protein bound to in vitro translated DP-1, peptide competition. The conditions noted are these: peptide included in binding reaction. The source says:
To determine the influence of the DEF box region upon the formation of the DP-1/E2F heterodimer, we used a binding assay in which E2F-1, expressed as a GST-E2F-1 fusion protein, bound to in vitro translated DP-1, an assay used previously to measure dimerization between DP and E2F proteins (31,32). Peptides were included in the binding reaction and their ability to compete with wild-type DP-1 for E2F-1 assessed by the amount of DP-1 which remained bound to the E2F-1 fusion protein.
(§1) GST-E2F-1, E2F-2, E2F-3 and pRb have been described previously (27,31,32) and were purified to homogeneity using glutathione Sepharose. In vitro translated DP-1, DP-1^172/173, E2F-1 and E1a were translated as described previously (27,31,32).
(§2) Gel retardation was performed using 5 to 10 μg of either F9 EC or JM cell extract with either an E2F or ATF site as previously described (15). Where fusion proteins were used, about 25 ng of either DP-1 or E2F-1 were used in each binding assay. For in vitro translates, about 6 μl of the translation mix was used in each binding assay. Gel retardation with an E2F binding site taken from the adenovirus E2a promoter was as previously described (15).

In assay [1] the target is T2, E2F DNA binding activity of DP-1/E2F-1 heterodimer (Homo sapiens, UniProt Q01094).
T2 construct: GST (N); made in house; host or cells: bacterial
The assay is described as follows: DP-1/E2F-1 DNA binding assay (gel retardation, bacterial fusion proteins). The class given is biochemical. Conditions: peptide titrated 1, 0.5, 0.1, 0.01 nmol.
Description: Since the peptides function as antagonists of the formation of the DP/E2F heterodimer, we reasoned that they may also interfere with E2F DNA binding activity. To address this question, we determined whether the E2F DNA binding activity created in vitro from combining bacterial DP and E2F fusion proteins was affected by the peptides.
As previously shown, the interaction between DP-1 and E2F-1 leads to co-operative DNA binding activity. Peptide H (SEQ ID NO:1) was titrated into the DP-1/E2F-1 DNA binding assay, using 1 nmol, 0.5 nmol, 0.1 nmol and 0.01 nmol of peptide.
as §2

Assay [2] deals with physiological E2F DNA binding activity (DP-1/E2F heterodimer) in F9 embryonal carcinoma cell extracts. Put plainly: gel retardation, E2F site, F9 EC cell extracts. The class given is biochemical. Conditions: for inactivation of E2F DNA binding activity in F9 EC cell extracts: F9 EC cell extract, peptide up to 1 nmol.
Description: Because the DEF box peptides can antagonise DNA binding activity of the DP-1/E2F heterodimer formed in vitro, we went on to establish their effects on physiological E2F. For this experiment, we used extracts prepared from F9 embryonal carcinoma (EC) cells, since these cells contain high levels of endogenous E2F DNA binding activity as a DP-1/E2F-heterodimer (26).
(§3) In a similar fashion to its effect upon the in vitro formed activity, the physiological DNA binding activity in F9 EC cell extracts was inactivated upon titration of peptide H (using the same concentrations mentioned above), but not by H1. This effect was specific for E2F since no effect on the unrelated DNA binding activity ATF was observed under similar conditions.
as §2

Another assay deals with T3, DP-1/E2F-2 heterodimer (Homo sapiens, UniProt Q14209).
T3 construct: GST (N); made in house; host or cells: GST fusion purified on glutathione Sepharose; DP-1 made by in vitro translation
Put plainly: binding assay: GST-E2F-2 bound to in vitro translated DP-1. Conditions: peptide 5 nmol, 1 nmol, 100 pmol.
Description: (§4) FIG. 2 illustrates that peptides containing DEF box sequence prevent DP-1 forming a heterodimer with E2F family members. The ability of in vitro translated DP-1 (indicated by bracket) to bind to GST-E2F-1 (tracks 1,2,3 and 4), GST-E2F-2 (5,6,7 and 8) or GST-E2F-3 (9,10,11 and 12) in the absence (tracks 1,5 and 9) or presence of decreasing levels of peptide H (5 nmol; tracks 2,6 and 10; 1 nmol tracks 3,7 and 11 or 100 pmol tracks 4,8 and 12).
(§5) In the second, the activity of the DEF box antagonist peptide H was assessed on heterodimers formed between DP-1 and the other E2F family members, E2F-2 and E2F-3, which show high conservation with E2F-1 across the DEF box. […] We conclude therefore that peptides representing sequence derived from the DEF box function as specific antagonists of the DP-1/E2F heterodimer.
as §1

In assay [3] the target is T4, pRb / adenovirus E1a protein interaction (Homo sapiens, UniProt P06400).
T4 construct: GST; made in house; host or cells: pRb fusion purified on glutathione Sepharose; E1a made by in vitro translation
T4 sequence (P06400 1-928): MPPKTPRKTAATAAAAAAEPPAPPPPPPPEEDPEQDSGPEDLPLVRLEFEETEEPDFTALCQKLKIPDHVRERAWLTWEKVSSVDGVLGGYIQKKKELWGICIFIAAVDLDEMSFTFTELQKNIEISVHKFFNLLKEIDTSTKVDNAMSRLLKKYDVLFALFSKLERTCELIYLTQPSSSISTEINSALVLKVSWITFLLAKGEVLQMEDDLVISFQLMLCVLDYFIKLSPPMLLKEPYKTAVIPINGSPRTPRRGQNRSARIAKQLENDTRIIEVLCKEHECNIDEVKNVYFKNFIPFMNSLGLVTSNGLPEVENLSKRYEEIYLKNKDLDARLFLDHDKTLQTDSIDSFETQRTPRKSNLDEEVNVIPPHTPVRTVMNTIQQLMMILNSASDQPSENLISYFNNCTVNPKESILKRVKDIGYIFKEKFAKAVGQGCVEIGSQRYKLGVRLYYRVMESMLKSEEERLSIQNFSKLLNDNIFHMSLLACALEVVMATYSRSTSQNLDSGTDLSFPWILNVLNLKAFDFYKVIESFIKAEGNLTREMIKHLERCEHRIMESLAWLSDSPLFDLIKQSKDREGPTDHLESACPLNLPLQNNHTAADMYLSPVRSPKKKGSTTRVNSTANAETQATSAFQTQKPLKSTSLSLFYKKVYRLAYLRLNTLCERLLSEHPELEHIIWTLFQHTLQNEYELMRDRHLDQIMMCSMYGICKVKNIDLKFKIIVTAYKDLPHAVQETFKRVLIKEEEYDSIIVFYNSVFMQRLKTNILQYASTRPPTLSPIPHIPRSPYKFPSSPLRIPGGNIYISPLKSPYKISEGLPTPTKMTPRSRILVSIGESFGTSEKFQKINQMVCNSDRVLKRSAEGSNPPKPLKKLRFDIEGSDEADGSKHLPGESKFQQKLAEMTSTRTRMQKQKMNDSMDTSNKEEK
Put plainly: specificity control: binding of pRb to in vitro translated adenovirus E1a protein. The conditions noted are these: unrelated protein-protein interaction control. The method, then: To evaluate the specificity of this effect, we undertook two controls. Firstly, the effect of DEF box derived peptides on an unrelated but well characterised protein-protein interaction was assessed, namely the binding of pRb to the adenovirus E1a protein (34). The E1a protein, when provided in the assay as an in vitro translate, specifically bound to pRb. […] Secondly, unrelated peptides representing other regions of DP-1 or subdomains of peptide H were assessed in the binding reaction. […] Overall, the results argue that peptide H antagonises the interaction between DP-1 and E2F-1 in the formation of a heterodimer.
as §1

In the next assay the target is T5, DP-1/E2F-3 heterodimer (Homo sapiens, UniProt O00716).
T5 construct: GST (N); made in house; host or cells: GST fusion purified on glutathione Sepharose; DP-1 made by in vitro translation
Put plainly: binding assay: GST-E2F-3 bound to in vitro translated DP-1. Conditions: peptide 5 nmol, 1 nmol, 100 pmol.
Description: as §4, §5, §1

The next assay relates to ATF DNA binding activity. The assay is described as follows: gel retardation, ATF site (specificity control). The class given is biochemical. Conditions: similar conditions as E2F assay. How it is done: as §3, §2

T1 sequence (Q01094 whole entry, one chain of several): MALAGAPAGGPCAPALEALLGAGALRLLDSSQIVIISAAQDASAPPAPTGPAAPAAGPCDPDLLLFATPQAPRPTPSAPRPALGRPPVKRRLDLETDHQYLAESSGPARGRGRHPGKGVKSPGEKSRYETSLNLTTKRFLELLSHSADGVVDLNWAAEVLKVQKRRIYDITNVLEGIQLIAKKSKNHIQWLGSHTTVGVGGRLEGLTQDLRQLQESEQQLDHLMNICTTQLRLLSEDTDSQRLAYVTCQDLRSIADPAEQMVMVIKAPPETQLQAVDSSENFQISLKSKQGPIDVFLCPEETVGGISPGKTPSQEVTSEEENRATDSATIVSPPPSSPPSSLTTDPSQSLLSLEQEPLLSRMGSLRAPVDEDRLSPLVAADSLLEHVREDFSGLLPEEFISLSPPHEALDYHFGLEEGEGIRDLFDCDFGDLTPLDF
T2 sequence (Q01094 whole entry, one chain of several): as above
T5 sequence (O00716 whole entry, the tested form may be a part, one chain of several): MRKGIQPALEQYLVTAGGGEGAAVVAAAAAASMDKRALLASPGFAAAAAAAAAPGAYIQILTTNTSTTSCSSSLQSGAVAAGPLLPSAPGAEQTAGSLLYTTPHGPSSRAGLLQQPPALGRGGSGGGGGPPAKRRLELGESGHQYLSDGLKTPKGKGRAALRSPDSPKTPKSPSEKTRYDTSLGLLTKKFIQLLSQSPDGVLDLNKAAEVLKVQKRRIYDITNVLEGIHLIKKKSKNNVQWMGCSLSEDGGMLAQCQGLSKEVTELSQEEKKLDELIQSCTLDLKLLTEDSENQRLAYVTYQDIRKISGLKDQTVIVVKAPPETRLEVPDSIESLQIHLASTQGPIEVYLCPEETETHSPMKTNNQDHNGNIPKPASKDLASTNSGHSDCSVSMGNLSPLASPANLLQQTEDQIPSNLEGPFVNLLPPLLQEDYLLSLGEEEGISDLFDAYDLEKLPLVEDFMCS
T3 sequence (Q14209 whole entry, the tested form may be a part, one chain of several): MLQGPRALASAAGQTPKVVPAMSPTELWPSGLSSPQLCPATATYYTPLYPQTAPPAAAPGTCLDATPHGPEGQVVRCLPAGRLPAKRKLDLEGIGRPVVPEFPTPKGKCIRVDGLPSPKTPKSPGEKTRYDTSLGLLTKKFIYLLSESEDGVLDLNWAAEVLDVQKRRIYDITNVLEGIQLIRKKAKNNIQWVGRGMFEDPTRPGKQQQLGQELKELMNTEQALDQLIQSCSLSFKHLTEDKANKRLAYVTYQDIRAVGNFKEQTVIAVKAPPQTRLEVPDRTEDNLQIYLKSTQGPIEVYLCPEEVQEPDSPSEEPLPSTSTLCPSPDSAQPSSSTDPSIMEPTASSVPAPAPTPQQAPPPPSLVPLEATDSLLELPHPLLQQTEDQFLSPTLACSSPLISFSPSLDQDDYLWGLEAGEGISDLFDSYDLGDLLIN

On to “15: DP-1 peptide taken from DCB1, C-terminal side of the DEF homology region (NLVQRNRQAEQQARR) [Peptide 15, reference compound]”, for which the “effect on binding of DP-1 to E2F-1 (formation of DP-1/E2F-1 heterodimer)” value (from here on “effect … (formation of DP-1/E2F-1 heterodimer)”) in the assay with DP-1/E2F-1 heterodimer is “failed to have any noticeable effect”. The “inhibition of DP-1/E2F-1 DNA binding activity” value (shortened to “inhibition”) in assay [1] was “did not interfere with DNA binding activity”.

For the substance “17: DP-1 peptide taken from DCB1, C-terminal side of the DEF homology region (EVERQRRLERIKQKQ) [Peptide 17, reference compound]”, the “effect … (formation of DP-1/E2F-1 heterodimer)” value with DP-1/E2F-1 heterodimer was “failed to have any noticeable effect”. Moreover, the “inhibition” value in assay [1] is on record as “did not interfere with DNA binding activity”.

Regarding “H1: peptide derived from the DEF box region which failed to affect heterodimer formation (RRRVYDALNVL) [Peptide H1]”, the “inactivation of E2F DNA binding activity in F9 EC cell extracts” value (from here on “inactivation of E2F DNA binding activity”) in assay [2] is listed as “not”. The “effect … (formation of DP-1/E2F-1 heterodimer)” value with DP-1/E2F-1 heterodimer is on record as “failed to affect formation of the DP-1/E2F-1 heterodimer”. Also, in assay [1], the “inhibition” value was “did not interfere with DNA binding activity”.

Consider “H6: shorter DEF box peptide lacking activity (RRVYDALNVLMAMN) [Peptide H6]”, for which, in the assay with DP-1/E2F-1 heterodimer, the “effect … (formation of DP-1/E2F-1 heterodimer)” value is “lacked activity; also recorded: failed to affect formation of the DP-1/E2F-1 heterodimer”. Besides, the “inhibition” value in assay [1] is listed as “did not interfere with DNA binding activity”.

Consider “KNIRRRVYDALNVLMAMNIISKEKKEIKWIGLPTNSA [Peptide H, complete DEF box region, residues 163 to 199 of DP-1, 37 residues]”, for which the “inactivation of E2F DNA binding activity” value in assay [2] is listed as “inactivated”. Besides, in assay [2] (slower migrating E2F complex), the “sensitivity of pocket protein-E2F complex relative to free E2F heterodimer” value was “less sensitive”. Further, in the assay with DP-1/E2F-1 heterodimer, the “effect … (formation of DP-1/E2F-1 heterodimer)” value was “interfere with the binding efficiency of DP-1 and E2F-1”. In addition, in assay [1], the “inhibition” value is listed as “Clear inhibition of DNA binding activity”. In addition, in the assay with DP-1/E2F-2 heterodimer, the “effect on ability of E2F-2 to bind to DP-1” value is “interfered specifically”. Besides, in assay [3], the “effect on binding of pRb to E1a” value is “no apparent effect”. The “effect on ability of E2F-3 to bind to DP-1” value in the assay with DP-1/E2F-3 heterodimer was “interfered specifically”. The “effect on ATF DNA binding activity” value in the assay on ATF DNA binding activity is recorded as “no effect”.

As for NVLMAMNIISKEKKEIKWIG [Peptide H3], in assay [1], the “inhibition” value was “lower activity compared to H2 and H7”.

With “Peptide 18: contains the N-terminal sequence taken from the DEF homology region (NESAYDQKNIRR) [reference compound]”, in the assay with DP-1/E2F-1 heterodimer, the “effect … (formation of DP-1/E2F-1 heterodimer)” value is listed as “failed to have any noticeable effect”. Further, the “inhibition” value in assay [1] is on record as “did not interfere with DNA binding activity”.

For the substance “RARVYAALNVLMAMNIISK [Peptide H2mt2, mutant H2 peptide]”, in assay [2], the “inactivation of E2F DNA binding activity” value is given as “retained some activity, but less than wild-type H2”.

As for “RRRAYDALNALMAMNIISK [Peptide H2mt1, mutant H2 peptide, V169 and V175 altered]”, in assay [2], the “inactivation of E2F DNA binding activity” value is “inactivated the E2F site DNA binding activity in F9 EC cell extracts with similar efficiency”.

For the substance “RVYDALNVLMAMNIIS [Peptide H5, 16 residues within H2]”, in the assay with DP-1/E2F-1 heterodimer, the “effect … (formation of DP-1/E2F-1 heterodimer)” value was “retained antagonistic activity”. In assay [1], the “inhibition” value was “lower activity compared to H2 and H7”.
